This experiment has as its target α7/5HT3A chimaeric receptor (control, non-mutant). Description: radioligand binding.

pKd: −log10 of the molar value. Values joined by “and” are separate entries in the source; they are usually repeats but may differ in a detail not shown here. Equal values may be shown once.

What is called pKd is −log10 of the Kd, conventionally taken in molar units. Lower therefore signals a high Kd.

Consider “125I-labelled α-bungarotoxin (from UniProt P60615 22-95) (natural protein)”, for which the pKd is 7.94 and 7.91 and 8.09.

Values taken from publication PMC3920732.
